Results published in IntAct's records for PubMed 18835279.

B1: Tax1-binding protein 3 (Mus musculus), Q9DBG9 (parent)
chain: MSYTPGQPVTAVVQRVEIHKLRQGENLILGFSIGGGIDQDPSQNPFSEDKTDKGIYVTRVSEGGPAEIAGLQIGDKIMQVNGWDMTMVTHDQARKRLTKRSEEVVRLLVTRQSLQKAVQQSMLS

Variants of: B1
Details: with ctnb1_human CTNNB1, P35222
ctnb1_human CTNNB1, P35222, sequence (P35222 whole entry): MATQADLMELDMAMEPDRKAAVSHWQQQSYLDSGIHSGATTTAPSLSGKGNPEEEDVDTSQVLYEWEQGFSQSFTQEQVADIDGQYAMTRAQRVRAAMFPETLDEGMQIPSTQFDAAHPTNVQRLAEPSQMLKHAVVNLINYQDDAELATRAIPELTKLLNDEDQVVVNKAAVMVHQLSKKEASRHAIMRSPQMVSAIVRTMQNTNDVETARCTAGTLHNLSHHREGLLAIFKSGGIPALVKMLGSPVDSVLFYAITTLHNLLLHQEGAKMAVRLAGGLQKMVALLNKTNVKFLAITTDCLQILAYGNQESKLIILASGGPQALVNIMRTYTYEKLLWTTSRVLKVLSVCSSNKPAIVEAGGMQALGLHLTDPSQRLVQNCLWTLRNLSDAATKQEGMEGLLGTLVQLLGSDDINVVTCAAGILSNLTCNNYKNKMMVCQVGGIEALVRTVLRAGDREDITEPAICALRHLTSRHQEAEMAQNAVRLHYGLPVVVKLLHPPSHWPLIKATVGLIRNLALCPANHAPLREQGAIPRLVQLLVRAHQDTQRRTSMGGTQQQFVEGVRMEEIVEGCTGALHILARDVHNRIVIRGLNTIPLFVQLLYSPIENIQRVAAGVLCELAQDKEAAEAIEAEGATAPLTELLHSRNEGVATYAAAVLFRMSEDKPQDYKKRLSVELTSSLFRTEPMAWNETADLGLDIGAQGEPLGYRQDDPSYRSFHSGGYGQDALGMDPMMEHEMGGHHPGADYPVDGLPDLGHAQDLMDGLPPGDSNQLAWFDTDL

| effect of a mutation on the interaction | Variant |
| --- | --- |
| decreasing interaction | P45A |
| decreasing interaction | P45S |

Variants of: B1
Details: with ctnb1_human CTNNB1, P35222
Remark: another data set of the same source

| effect of a mutation on the interaction | Variant |
| --- | --- |
| increasing interaction | P45A |
